From article PMC8136814

Target: R3B2 1-273 (RIIID and first dsRBD) (Mucor lusitanicus)
Assay: SEC-MALS

Question: Which stoichiometry N does the source give for “R3B2 1-273 (RIIID and first dsRBD) (domain or fragment)” here?
Answer: The stoichiometry N was 2.
